Measurements from patent publication US20230080534A1, “SEMG2 ANTIBODY AND USE THEREOF” (SHANGHAI BIOTROY BIOTECHNIQUE CO., LTD., priority 2020, published 2023).

Experiments:
[1] = biological target: human SEMG2 full-length protein (human) (UniProt Q02383); assay: ELISA, immobilized antigen SEMG2 (1-582)
[2] = biological target: SEMG2(497-509) polypeptide … (human); assay: ELISA, immobilized peptide …
[3] = biological target: SEMG2(497-509) polypeptide … (human); assay: ELISA, immobilized antigen SEMG2 (497-509)
[4] = biological target: SEMG2(563-574) fragment (human); assay: ELISA, immobilized antigen SEMG2 (563-574)
[5] = biological target: SEMG2(442-453) fragment (human); assay: ELISA, immobilized antigen SEMG2 (442-453)
[6] = biological target: SEMG2(354-403) fragment (human); assay: ELISA, immobilized antigen SEMG2 (354-403)
[7] = biological target: human SEMG2 full-length protein (human) (UniProt Q02383); assay: ELISA, plate coated with SEMG2 protein; fit value printed for the flat control curve (see non_binding); the EC50 table prints no unit, the axis is log (antibody concentration, nM)

Sequence of human SEMG2 full-length protein (human) (Q02383 24-582 limits assumed): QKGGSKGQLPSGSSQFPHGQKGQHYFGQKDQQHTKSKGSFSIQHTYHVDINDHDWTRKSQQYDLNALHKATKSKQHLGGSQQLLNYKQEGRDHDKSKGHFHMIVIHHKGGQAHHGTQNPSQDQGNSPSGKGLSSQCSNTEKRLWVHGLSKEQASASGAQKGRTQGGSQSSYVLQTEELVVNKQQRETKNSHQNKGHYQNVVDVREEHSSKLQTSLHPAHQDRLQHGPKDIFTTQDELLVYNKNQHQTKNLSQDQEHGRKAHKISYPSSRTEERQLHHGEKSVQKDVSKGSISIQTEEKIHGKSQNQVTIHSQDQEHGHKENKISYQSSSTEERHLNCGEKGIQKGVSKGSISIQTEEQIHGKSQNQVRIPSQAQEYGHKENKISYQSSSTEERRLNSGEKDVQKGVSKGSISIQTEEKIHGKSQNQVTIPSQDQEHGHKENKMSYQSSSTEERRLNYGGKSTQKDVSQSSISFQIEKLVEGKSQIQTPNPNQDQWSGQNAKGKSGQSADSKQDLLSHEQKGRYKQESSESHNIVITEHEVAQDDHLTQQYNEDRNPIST
Sequence of SEMG2(354-403) fragment (human) (peptide, as listed by the source): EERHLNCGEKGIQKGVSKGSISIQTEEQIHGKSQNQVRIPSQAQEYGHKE

A450 absorbance [1] | OD450 absorbance [2] | A450 absorbance [3] | A450 absorbance [4] | A450 absorbance [5] | A450 absorbance [6] | EC50 [7] [pM] | Substance
1.16 | 0.005 | 0.002 | 0.011 | 0.007 | 1.14 |  | HPA042767 (rabbit polyclonal antibody against SEMG2(354-403), Sigma Aldrich)
1.17 | 0.005 | 0.009 | 1.16 | 0.002 | 0.009 |  | HPA042835 (rabbit polyclonal antibody against SEMG2(563-574), Sigma Aldrich)
 |  |  |  |  |  | 88.5 | mIgG1 (antibody)
